# Source: article PMC9256654, “Mechanistic basis for maintenance of CHG DNA methylation in plants” (Nature Communications, 2022)
# Key:
# [1] = target: Zea mays ZMET2 (residues 130-912), core fragment harboring the CD, BAH and MTase domains (Zea mays) (UniProt Q9AXT8)
# [2] = target: A. thaliana CMT3 (residues 42-839) (A. thaliana) (UniProt Q94F88)
# [3] = target: Zea mays ZMET2 (residues 130-912), core fragment harboring the CD, BAH and MTase domains (Zea mays) (UniProt Q9AXT8); remark: listed apart in the source
# Zea mays ZMET2 (residues 130-912), core fragment harboring the CD, BAH and MTase domains (Zea mays), sequence (Q9AXT8 130-912): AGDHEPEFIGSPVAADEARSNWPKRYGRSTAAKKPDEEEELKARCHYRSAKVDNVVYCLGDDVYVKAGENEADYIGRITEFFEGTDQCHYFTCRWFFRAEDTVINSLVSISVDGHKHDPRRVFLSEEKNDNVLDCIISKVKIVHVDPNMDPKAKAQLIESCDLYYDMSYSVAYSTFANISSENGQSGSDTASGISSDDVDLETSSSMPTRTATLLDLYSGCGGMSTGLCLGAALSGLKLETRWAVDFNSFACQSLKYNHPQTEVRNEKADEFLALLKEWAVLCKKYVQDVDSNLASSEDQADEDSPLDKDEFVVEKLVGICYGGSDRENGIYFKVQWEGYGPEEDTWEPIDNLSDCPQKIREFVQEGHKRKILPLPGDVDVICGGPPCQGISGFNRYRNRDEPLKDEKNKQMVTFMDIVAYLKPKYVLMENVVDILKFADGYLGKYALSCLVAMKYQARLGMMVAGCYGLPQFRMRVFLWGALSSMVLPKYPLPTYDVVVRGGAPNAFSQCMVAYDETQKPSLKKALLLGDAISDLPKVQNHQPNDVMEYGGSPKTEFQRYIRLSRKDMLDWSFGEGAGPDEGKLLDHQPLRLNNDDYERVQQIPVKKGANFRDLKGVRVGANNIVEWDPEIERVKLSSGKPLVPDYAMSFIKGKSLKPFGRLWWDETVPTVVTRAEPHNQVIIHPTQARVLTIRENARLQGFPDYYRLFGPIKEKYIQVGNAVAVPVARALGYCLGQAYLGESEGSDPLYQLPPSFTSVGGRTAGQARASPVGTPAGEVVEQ
# A. thaliana CMT3 (residues 42-839) (A. thaliana), sequence (Q94F88 42-839): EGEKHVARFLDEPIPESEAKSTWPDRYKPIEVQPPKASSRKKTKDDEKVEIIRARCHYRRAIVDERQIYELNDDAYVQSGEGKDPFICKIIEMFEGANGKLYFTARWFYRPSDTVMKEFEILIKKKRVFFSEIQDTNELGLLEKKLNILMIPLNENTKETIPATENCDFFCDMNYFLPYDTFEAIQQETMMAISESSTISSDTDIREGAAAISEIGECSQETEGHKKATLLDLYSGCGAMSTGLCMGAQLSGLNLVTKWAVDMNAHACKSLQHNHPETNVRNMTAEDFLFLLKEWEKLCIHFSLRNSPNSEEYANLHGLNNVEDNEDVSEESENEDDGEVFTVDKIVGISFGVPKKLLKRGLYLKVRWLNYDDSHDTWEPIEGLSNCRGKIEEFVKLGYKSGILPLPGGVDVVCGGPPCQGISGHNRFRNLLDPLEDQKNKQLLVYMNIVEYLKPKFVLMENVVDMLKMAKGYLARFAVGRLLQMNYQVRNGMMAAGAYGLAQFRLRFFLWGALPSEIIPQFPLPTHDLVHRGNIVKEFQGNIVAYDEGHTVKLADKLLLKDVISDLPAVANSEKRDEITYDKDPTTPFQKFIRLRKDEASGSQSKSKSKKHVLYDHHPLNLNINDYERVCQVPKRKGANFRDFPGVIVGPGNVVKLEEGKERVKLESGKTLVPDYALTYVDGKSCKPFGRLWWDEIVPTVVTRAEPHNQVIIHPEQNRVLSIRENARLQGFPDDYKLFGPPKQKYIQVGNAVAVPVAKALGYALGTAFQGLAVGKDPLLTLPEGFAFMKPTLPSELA
"in vitro DNA methylation activity of ZMET2, reduction of the enzymatic stimulation against H3 (1–32)K9me2 [1]","in vitro DNA methylation activity of CMT3, reduction of the enzymatic stimulation against H3 (1–32)K9me2 [2]","in vitro DNA methylation activity of ZMET2 on hmCHG DNA, fold stimulation by the peptide [3]","in vitro DNA methylation activity of ZMET2 on unmodified CAG DNA, fold stimulation by the peptide [3]",Substance
> 3 fold,> 3 fold,,,"histone H3K9me2K18ac peptide residues 1-32, followed by a C-terminal tyrosine (from UniProt P68431 2-33)"
,,15 fold,6 fold,"histone H3K9me2 peptide encompassing residues 1-32, followed by a C-terminal tyrosine (from UniProt P68431 2-33)"
